Reference: article doi:10.1101/2020.04.15.043356 (bioRxiv, 2020)

B1: GST-Sec23 (natural protein, S. cerevisiae)
chain: MDFETNEDINGVRFTWNVFPSTRSDANSNVVPVGCLYTPLKEYDELNVAPYNPVVCSGPHCKSILNPYCVIDPRNSSWSCPICNSRNHLPPQYTNLSQENMPLELQSTTIEYITNKPVTVPPIFFFVVDLTSETENLDSLKESIITSLSLLPPNALIGLITYGNVVQLHDLSSETIDRCNVFRGDREYQLEALTEMLTGQKPTGPGGAASHLPNAMNKVTPFSLNRFFLPLEQVEFKLNQLLENLSPDQWSVPAGHRPLRATGSALNIASLLLQGCYKNIPARIILFASGPGTVAPGLIVNSELKDPLRSHHDIDSDHAQHYKKACKFYNQIAQRVAANGHTVDIFAGCYDQIGMSEMKQLTDSTGGVLLLTDAFSTAIFKQSYLRLFAKDEEGYLKMAFNGNMAVKTSKDLKVQGLIGHASAVKKTDANNISESEIGIGATSTWKMASLSPYHSYAIFFEIANTAANSNPMMSAPGSADRPHLAYTQFITTYQHSSGTNRIRVTTVANQLLPFGTPAIAASFDQEAAAVLMARIAVHKAETDDGADVIRWLDRTLIKLCQKYADYNKDDPQSFRLAPNFSLYPQFTYYLRRSQFLSVFNNSPDETAFYRHIFTREDTTNSLIMIQPTLTSFSMEDDPQPVLLDSISVKPNTILLLDTFFFILIYHGEQIAQWRKAGYQDDPQYADFKALLEEPKLEAAELLVDRFPLPRFIDTEAGGSQARFLLSKLNPSDNYQDMARGGSTIVLTDDVSLQNFMTHLQQVAVSGQA

Experiments:
[1] = target: Sec13/Sec31 outer coat complex (wild type, His tag removed) (S. cerevisiae, UniProt Q04491 1-297; P38968 1-1273); test: pull-down
Chain of Sec13/Sec31 outer coat complex (wild type, His tag removed) (Q04491 whole entry, chain 1 of 2): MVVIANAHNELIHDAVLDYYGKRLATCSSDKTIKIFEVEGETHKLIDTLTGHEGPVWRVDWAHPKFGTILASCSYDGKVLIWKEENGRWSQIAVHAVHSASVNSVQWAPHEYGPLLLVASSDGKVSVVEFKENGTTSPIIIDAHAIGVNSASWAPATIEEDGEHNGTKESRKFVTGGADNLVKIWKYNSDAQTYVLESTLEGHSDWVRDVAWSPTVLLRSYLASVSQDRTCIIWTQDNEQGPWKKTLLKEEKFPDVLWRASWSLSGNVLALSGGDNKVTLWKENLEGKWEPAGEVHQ
Chain of Sec13/Sec31 outer coat complex (wild type, His tag removed) (P38968 whole entry, chain 2 of 2): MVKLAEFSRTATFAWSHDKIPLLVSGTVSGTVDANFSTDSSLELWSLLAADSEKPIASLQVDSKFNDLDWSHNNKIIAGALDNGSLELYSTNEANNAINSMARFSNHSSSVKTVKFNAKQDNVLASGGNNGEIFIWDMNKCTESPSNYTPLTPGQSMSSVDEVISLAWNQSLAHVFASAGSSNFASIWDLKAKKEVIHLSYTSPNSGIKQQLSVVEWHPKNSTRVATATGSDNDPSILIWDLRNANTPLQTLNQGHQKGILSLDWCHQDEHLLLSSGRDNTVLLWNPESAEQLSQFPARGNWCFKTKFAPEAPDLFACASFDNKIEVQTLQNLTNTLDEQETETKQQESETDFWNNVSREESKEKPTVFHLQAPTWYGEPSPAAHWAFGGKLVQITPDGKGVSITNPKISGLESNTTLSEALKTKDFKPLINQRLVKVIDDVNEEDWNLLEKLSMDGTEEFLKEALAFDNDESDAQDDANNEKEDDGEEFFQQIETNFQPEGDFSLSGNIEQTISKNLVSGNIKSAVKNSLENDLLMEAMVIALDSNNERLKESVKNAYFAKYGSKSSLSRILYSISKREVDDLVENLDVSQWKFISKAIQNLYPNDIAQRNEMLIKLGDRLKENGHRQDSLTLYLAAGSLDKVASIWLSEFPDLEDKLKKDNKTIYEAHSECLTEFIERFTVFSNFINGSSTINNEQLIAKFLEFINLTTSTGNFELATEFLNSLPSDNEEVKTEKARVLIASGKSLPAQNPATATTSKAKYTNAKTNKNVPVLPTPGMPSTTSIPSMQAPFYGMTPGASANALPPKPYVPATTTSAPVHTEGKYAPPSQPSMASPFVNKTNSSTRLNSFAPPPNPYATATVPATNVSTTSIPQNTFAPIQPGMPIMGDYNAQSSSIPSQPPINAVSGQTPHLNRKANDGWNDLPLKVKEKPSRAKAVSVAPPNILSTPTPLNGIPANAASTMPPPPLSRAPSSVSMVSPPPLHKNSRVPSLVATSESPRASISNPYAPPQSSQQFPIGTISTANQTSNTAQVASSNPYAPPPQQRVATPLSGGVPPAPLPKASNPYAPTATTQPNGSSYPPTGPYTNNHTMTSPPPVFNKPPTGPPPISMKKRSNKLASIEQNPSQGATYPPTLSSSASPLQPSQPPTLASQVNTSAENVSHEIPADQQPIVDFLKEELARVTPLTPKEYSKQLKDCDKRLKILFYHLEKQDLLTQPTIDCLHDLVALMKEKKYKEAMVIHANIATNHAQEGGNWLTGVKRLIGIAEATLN

GST-Sec23 = target: B1; test: pull-down

B1
binding result [1]: binds

B2: 6xHis-Grh1 (natural protein, S. cerevisiae, UniProt Q04410 1-372, looked up)
chain: MFRIAKNLVRTFEQSVQDTLALSQDSSNLDAFFQSIPPNLLSAQLESPVDAVSEGVKHTNVNETLSGLRIVWVDEMQFQLQSFFDYIVGFNDDPVPVVSNQHGFSYPDYRRITSIFNEHCGRTLKVNIWSAKGGTFRDEYISIISKESDDLDDVSLNHDERRPSSGEAHQFQALGFKVQWTPLIASTFTYHILNVNIPDGPAQSAGLIPDEDYIIGCQDGLLATGGETLLQDIVRSRANYDLVLYVYNKVSDCVRPITVHIGPDGRLGCNVGYGFLHRIPTVKHCPQQAQQQGQDDNPVPVPVPVESETAFVPSAFTAPPVPTKKKSKNKKGTQPLAMDDYFNEGRDKSSTAAKSAESDILAPPPQKQSSSD
binding result (GST-Sec23): binds
